According to patent publication US9803013B2, “Biological materials and uses thereof” (BioInvent International AB, priority 2005, dated 2017):

Experiments:
MC/CAR = experiment: Apoptosis induction by cross-linked IgG (Annexin V/PI); type: cell-based, human; conditions: viable cells after 6 hour incubation, crosslinked, compared to control FITC-8 IgG1
Protocol: (§1) 2×10^5 B lymphoma cells (Raji or Ramos) or Jurkat T cells were incubated with serially diluted and detoxified scFv's in culture medium for 1 h on ice.
(§2) When whole IgGs were used for apoptosis induction, cross-linking reagent was replaced by goat Fab′2 anti-human Fc γ antibody (Jackson ImmunoResearch) with minimal cross-reactivity with non-IgG antibody isotypes (to avoid unspecific cross-linking of endogenous B lymphoma associated surface immunoglobulins) and incubated, as described above, for 6 h.
(§3) Apoptotic cells were, unless otherwise stated, detected by combined staining with Annexin V Alexa Fluor 488 (AV) and Propidium Iodide (PI) (both from Molecular Probes, Invitrogen) and subsequent flow-cytometric analysis, Cells were defined as viable (AV−/PI−), early apoptotic (AV+/PI−) or late apoptotic/necrotic (AV+/PI+). AV and PI signals were recorded in the FL1 and FL2 or FL3 channels (as indicated in the text), respectively, using a FACSCalibur instrument (BD Biosciences).
(§4) • ^aApoptosis Induction; determined by percentage of viable cells after 6 hour incubation with any of the human antibodies, crosslinked with Goat anti-Human (gamma) Fc specific antibody; −, viability not affected; +, 95-80%; ++, 79-60%; +++, 59-40% viable cells compared to control (human FITC-8 IgG1). […] The cell line dependent MFI value of control human FITC-8 IgG antibody was subtracted from the MFI of each human antibody.

Jeko-1 [1] = experiment: as above; type: cell-based, human; conditions: viable cells after 6 hour incubation, crosslinked, compared to control FITC-8 IgG1
Protocol: as §1, §2, §3, §4

Granta 519 [2] = experiment: as above; type: cell-based, human; conditions: viable cells after 6 hour incubation, crosslinked, compared to control FITC-8 IgG1
Protocol: as §1, §2, §3, §4

JVM-2 [3] = experiment: as above; type: cell-based, human; conditions: viable cells after 6 hour incubation, crosslinked, compared to control FITC-8 IgG1
Protocol: as §1, §2, §3, §4

BJAB [4] = experiment: as above; type: cell-based, human; conditions: viable cells after 6 hour incubation, crosslinked, compared to control FITC-8 IgG1
Protocol: as §1, §2, §3, §4

CL-01 [5] = experiment: as above; type: cell-based, human; conditions: viable cells after 6 hour incubation, crosslinked, compared to control FITC-8 IgG1
Protocol: as §1, §2, §3, §4

Raji [6] = experiment: as above; type: cell-based, human; conditions: for Apoptosis Induction: Raji, viable cells after 6 hour incubation, crosslinked, compared to control FITC-8 IgG1
Protocol: as §1, §2, §3, §4
(§5) BI-505 receptor occupancy was studied following FACS analyses of tumor cells incubated with increasing concentrations of BI-505 in vitro. Briefly, following pre-blocking of tumor cell FcγR with 1 mg/ml human IgG on ice for 15 min, tumor cells were incubated with 10-fold serially diluted (10 μg/ml to 0.00001 μg/ml) AF647-BI505 and surface bound BI-505 was recorded as the mean fluorescence intensities (MFI) picked up in the FL4 channel of a FACSCalibur instrument. The experiment was repeated three times and mean MFI values were calculated and plotted as a function of antibody concentration. A binding saturation curve was generated by plotting mean MFI values as a function of BI-505 concentration. The curve was fitted using a five-parameter log-log curve and XLfit software. BI-505 concentration dependent PCD was calculated by plotting the percentage of maximal tumor PCD in vitro as a function of BI-505 concentration in a manner analogous to that described for BI-505 receptor occupancy. Briefly, tumor cells were cultured with increasing concentrations of BI-505 in the presence of hyper-cross-linking antibody reagent for 24 hr, and PCD was monitored after combined staining with Annexin V/AF488 and propidium iodide using flow cytometry. Cells received treatment in triplicate and the experiment was repeated three to five times. Mean percentage of maximal PCD was then plotted as a function of BI-505 concentration and was fitted using a five parameter log-log curve and XLfit software. In vitro PCD and in vivo anti-tumor activity were plotted as a function of receptor occupancy using curve fitting equations and data generated and described above.

Daudi [7] = experiment: as above; type: cell-based, human; conditions: for Apoptosis Induction: Daudi, viable cells after 6 hour incubation, crosslinked, compared to control FITC-8 IgG1
Protocol: as §1, §2, §3, §4, §5

Ramos [8] = experiment: as above; type: cell-based, human; conditions: for Apoptosis Induction: Ramos, viable cells after 6 hour incubation, crosslinked, compared to control FITC-8 IgG1
Protocol: as §1, §2, §3, §4, §5

Reh/KM-3 = experiment: IgG binding to pre B cell leukaemia cell line, flow cytometry MFI; parameters: species or system human; conditions: Reh/KM-3, pre B cell Leukaemia; control FITC-8 IgG MFI subtracted
Protocol: as §4

DOHH-2 = experiment: IgG binding to B lymphoma cell line, flow cytometry MFI; parameters: species or system human; conditions: DOHH-2, Follicular Lymphoma; control FITC-8 IgG MFI subtracted
Protocol: as §4

Jeko-1 [9] = experiment: as above; parameters: species or system human; conditions: Jeko-1, Mantle cell Lymphoma; control FITC-8 IgG MFI subtracted
Protocol: as §4

SC-1 = experiment: as above; parameters: species or system human; conditions: SC-1, Follicular Lymphoma; control FITC-8 IgG MFI subtracted
Protocol: as §4

Granta 519 [10] = experiment: as above; parameters: species or system human; conditions: Granta 519, Mantle cell Lymphoma; control FITC-8 IgG MFI subtracted
Protocol: as §4

JVM-2 [11] = experiment: as above; parameters: species or system human; conditions: JVM-2, Mantle cell Lymphoma; control FITC-8 IgG MFI subtracted
Protocol: as §4

WSU-NHL = experiment: as above; parameters: species or system human; conditions: Follicular Lymphoma, control FITC-8 IgG MFI subtracted
Protocol: as §4

SP-53 = experiment: as above; parameters: species or system human; conditions: SP-53, Mantle cell Lymphoma; control FITC-8 IgG MFI subtracted
Protocol: as §4

BJAB [12] = experiment: as above; parameters: species or system human; conditions: Burkitt's Lymphoma, control FITC-8 IgG MFI subtracted
Protocol: as §4

NCEB-1 = experiment: as above; parameters: species or system human; conditions: NCEB-1, Mantle cell Lymphoma; control FITC-8 IgG MFI subtracted
Protocol: as §4

CL-01 [13] = experiment: as above; parameters: species or system human; conditions: CL-01, Burkitt's Lymphoma; control FITC-8 IgG MFI subtracted
Protocol: as §4

Rec-1 = experiment: as above; parameters: species or system human; conditions: Rec-1, Mantle cell Lymphoma; control FITC-8 IgG MFI subtracted
Protocol: as §4

Raji [14] = experiment: as above; parameters: species or system human; conditions: Burkitt's Lymphoma, control FITC-8 IgG MFI subtracted
Protocol: as §4

RL = experiment: as above; parameters: species or system human; conditions: Follicular Lymphoma, control FITC-8 IgG MFI subtracted
Protocol: as §4

Daudi [15] = experiment: as above; parameters: species or system human; conditions: Burkitt's Lymphoma, control FITC-8 IgG MFI subtracted
Protocol: as §4

Ramos [16] = experiment: as above; parameters: species or system human; conditions: Burkitt's Lymphoma, control FITC-8 IgG MFI subtracted
Protocol: as §4

B1: C11: fully human IgG1 antibody specific for surface IgM; VH and VL sequences of FIG. 11 (SEQ ID NOs. 10 and 12) (antibody, listed as Homo sapiens, V domains shown)
VH: EVQLLESGGGLVQPGGSLRLSCAASGFTFGSYEMNWVRQAPGKGLEWVSVIYSGGSTYYADSVEGRFTISRDNSKNTLYLQMNSLRAEDTAVYYCARDTNPYYYYGMDVWGQGTLVTVSS
VL: QSVLTQPPSASGTPGQRVTISCSGSSSNIGNNAVNWYQQLPGTAPKLLIYRNNQRPSGVPDRFSGSKSGTSASLAISGLRSEDEADYYCQSYDSSLNGQVFGGGTKLTVLG
With B1 the “Apoptosis Induction” value (MC/CAR) was “−”, the “Apoptosis Induction” value (Jeko-1 [1]) was “++ (79-60%)” and the “Apoptosis Induction” value (Granta 519 [2]) was “+ (95-80%)”. The “Apoptosis Induction” value (JVM-2 [3]) was “−”, the “Apoptosis Induction” value (BJAB [4]) was “+ (95-80%)” and the “Apoptosis Induction” value (CL-01 [5]) was “+ (95-80%)”. For the same molecule, the “Apoptosis Induction” value (Raji [6]) was “+ (95-80%)”, the “Apoptosis Induction” value (Daudi [7]) was “+ (95-80%)” and the “Apoptosis Induction” value (Ramos [8]) was “+++ (59-40% viable cells compared to control (human FITC-8 IgG1))”. It also gave an MFI (Reh/KM-3) of 0, an MFI (DOHH-2) of 90 and an MFI (Jeko-1 [9]) of 1040. It also gave an MFI (SC-1) of 50, an MFI (Granta 519 [10]) of 60 and an MFI (JVM-2 [11]) of 10. The MFI (WSU-NHL) was 60, the MFI (SP-53) was 360 and the MFI (BJAB [12]) was 510. It also gave an MFI (NCEB-1) of 10, an MFI (CL-01 [13]) of 60 and an MFI (Rec-1) of 900. It also gave an MFI (Raji [14]) of 20, an MFI (RL) of 210 and an MFI (Daudi [15]) of 450. It also gave an MFI (Ramos [16]) of 240.

B2: B11: fully human IgG1 antibody specific for ICAM-1; VH and VL sequences of FIG. 10 (SEQ ID NOs. 6 and 8) (antibody, listed as Homo sapiens, V domains shown)
VH: EVQLLESGGGLVQPGGSLRLSCAASGFTFSNAWMSWVRQAPGKGLEWVAFIWYDGSNKYYADSVKGRFTISRDNSKNTLYLQMNSLRAEDTAVYYCARYSGWYFDYWGQGTLVTVSS
VL: QSVLTQPPSASGTPGQRVTISCTGSSSNIGAGYDVHWYQQLPGTAPKLLIYDNNNRPSGVPDRFSGSKSGTSASLAISGLRSEDEADYYCQSYDSSLSAWLFGGGTKLTVLG
B2 was tested, and the “Apoptosis Induction” value (MC/CAR) was “+ (95-80%)”, the “Apoptosis Induction” value (Jeko-1 [1]) was “+ (95-80%)” and the “Apoptosis Induction” value (Granta 519 [2]) was “+ (95-80%)”. For the same molecule, the “Apoptosis Induction” value (JVM-2 [3]) was “−”, the “Apoptosis Induction” value (BJAB [4]) was “+ (95-80%)” and the “Apoptosis Induction” value (CL-01 [5]) was “++ (79-60%)”. The “PCD induction” value (Raji [6]; ICAM-1-expressing Raji lymphoma cells) was “dose-dependently induced PCD”, the “Apoptosis Induction” value (Raji [6]) was “+ (95-80%)” and the “Apoptosis Induction” value (Daudi [7]) was “+ (95-80%)”. The “PCD induction” value (Daudi [7]; ICAM-1-expressing Daudi lymphoma cells) was “dose-dependently induced PCD”, the “PCD induction” value (Ramos [8]; ICAM-1-expressing Ramos lymphoma cells) was “dose-dependently induced PCD” and the “Apoptosis Induction” value (Ramos [8]) was “++ (79-60%)”. It also gave an MFI (Reh/KM-3) of 20, an MFI (DOHH-2) of 100 and an MFI (Jeko-1 [9]) of 30. It also gave an MFI (SC-1) of 0, an MFI (Granta 519 [10]) of 260 and an MFI (JVM-2 [11]) of 100. It also gave an MFI (WSU-NHL) of 0, an MFI (SP-53) of 90 and an MFI (BJAB [12]) of 310. It also gave an MFI (NCEB-1) of 340, an MFI (CL-01 [13]) of 600 and an MFI (Rec-1) of 380. For the same molecule, the MFI (Raji [14]) was 420, the MFI (RL) was 100 and the MFI (Daudi [15]) was 150. The MFI (Ramos [16]) was 100.
